The results in this text go back to patent US20160091500.

B1: MMP-7 (enzyme, UniProt P09237 95-267, looked up, species assumed)
Matrilysin: YSLFPNSPKWTSKVVTYRIVSYTRDLPHITVDRLVSKALNMWGKEIPLHFRKVVWGTADIMIGFARGAHGDSYPFDGPGNTLAHAFAPGTGLGGDAHFDEDERWTDGSSLGINFLYAATHELGHSLGMGHSSDPNAVMYPTYGNGDPQNFKLSQDDIKGIQKLYGKRSNSRKK
B2: Recombinant cathepsin K (enzyme, UniProt P43235 115-329, looked up, species assumed)
Cathepsin K: APDSVDYRKKGYVTPVKNQGQCGSCWAFSSVGALEGQLKKKTGKLLNLSPQNLVDCVSENDGCGGGYMTNAFQYVQKNRGIDSEDAYPYVGQEESCMYNPTGKAAKCRGYREIPEGNEKALKRAVARVGPVSVAIDASLTSFQFYSKGVYYDESCNSDNLNHAVLAVGYGIQKGNKHWIIKNSWGENWGNKGYILMARNKNNACGIANLASFPKM
B3: ADAMTS4 (enzyme, UniProt O75173 213-837, looked up, species assumed)
A disintegrin and metalloproteinase with thrombospondin motifs 4: FASLSRFVETLVVADDKMAAFHGAGLKRYLLTVMAAAAKAFKHPSIRNPVSLVVTRLVILGSGEEGPQVGPSAAQTLRSFCAWQRGLNTPEDSDPDHFDTAILFTRQDLCGVSTCDTLGMADVGTVCDPARSCAIVEDDGLQSAFTAAHELGHVFNMLHDNSKPCISLNGPLSTSRHVMAPVMAHVDPEEPWSPCSARFITDFLDNGYGHCLLDKPEAPLHLPVTFPGKDYDADRQCQLTFGPDSRHCPQLPPPCAALWCSGHLNGHAMCQTKHSPWADGTPCGPAQACMGGRCLHMDQLQDFNIPQAGGWGPWGPWGDCSRTCGGGVQFSSRDCTRPVPRNGGKYCEGRRTRFRSCNTEDCPTGSALTFREEQCAAYNHRTDLFKSFPGPMDWVPRYTGVAPQDQCKLTCQAQALGYYYVLEPRVVDGTPCSPDSSSVCVQGRCIHAGCDRIIGSKKKFDKCMVCGGDGSGCSKQSGSFRKFRYGYNNVVTIPAGATHILVRQQGNPGHRSIYLALKLPDGSYALNGEYTLMPSPTDVVLPGAVSLRYSGATAASETLSGHGPLAQPLTLQVLVAGNPQDTRLRYSFFVPRPTPSTPRPTPQDWLHRRAQILEILRRRPWAGRK

In the data set the test system is T1, intact chondroadherin (CHAD) polypeptide, human.
T1 sequence: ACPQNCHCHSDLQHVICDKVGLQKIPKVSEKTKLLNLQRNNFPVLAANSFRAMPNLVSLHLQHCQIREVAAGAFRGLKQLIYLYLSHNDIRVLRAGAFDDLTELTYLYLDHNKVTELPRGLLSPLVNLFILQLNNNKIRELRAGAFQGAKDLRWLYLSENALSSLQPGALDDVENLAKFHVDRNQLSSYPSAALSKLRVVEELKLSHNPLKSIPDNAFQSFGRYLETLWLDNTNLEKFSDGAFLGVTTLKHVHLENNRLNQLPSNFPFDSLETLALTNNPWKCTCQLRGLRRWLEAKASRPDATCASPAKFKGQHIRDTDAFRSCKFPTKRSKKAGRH
ADAMTS5: the “CHAD fragmentation after protease digestion of normal disc tissue (SDS-PAGE, immunoblot)” value (shortened to “CHAD fragmentation”) is “digestions performed with ADAMTS4 and ADAMTS5 also did not generate CHAD fragments”. As for MMP-3, the “CHAD fragmentation” value was “Digestion with MMPs 3, 7, 12 and 13, showed no evidence of CHAD fragments retained in the tissue”. Take MMP-12: the “CHAD fragmentation” value is “Digestion with MMPs 3, 7, 12 and 13, showed no evidence of CHAD fragments retained in the tissue”.

For the molecule MMP-13, the “CHAD fragmentation” value was “Digestion with MMPs 3, 7, 12 and 13, showed no evidence of CHAD fragments retained in the tissue”.

In the case of Recombinant cathepsin B, the “CHAD fragmentation” value was “Digestions performed with cathepsins B and L showed extensive degradation of CHAD”.

Recombinant cathepsin L: the “CHAD fragmentation” value is “Digestions performed with cathepsins B and L showed extensive degradation of CHAD”. As for B1, the “CHAD fragmentation” value is “Digestion with MMPs 3, 7, 12 and 13, showed no evidence of CHAD fragments retained in the tissue”.

Consider B2, for which the “CHAD fragmentation” value is “cathepsin K generated a CHAD fragment large enough to be retained in the gel and similar in size to that generated in situ”.

Turning to B3, the “CHAD fragmentation” value is “digestions performed with ADAMTS4 and ADAMTS5 also did not generate CHAD fragments”.
